The data set relates to HeLa Kyoto. Kind of data set: thermal stability score vs G1/S (z-score of summed log2 fold changes over temperatures); higher = more thermally stable than in G1/S.
The mark [1] stands for this setting: cell cycle stage: early G1 (4.5 h after nocodazole release).
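Note: synchronized HeLa Kyoto cells, proteins quantified by TMT10plex mass spectrometry, three biological replicates, mitosis taken 0.5 h after nocodazole release, G1/S directly after double thymidine block.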

Sequence of MARK3 (chain, as listed by the source): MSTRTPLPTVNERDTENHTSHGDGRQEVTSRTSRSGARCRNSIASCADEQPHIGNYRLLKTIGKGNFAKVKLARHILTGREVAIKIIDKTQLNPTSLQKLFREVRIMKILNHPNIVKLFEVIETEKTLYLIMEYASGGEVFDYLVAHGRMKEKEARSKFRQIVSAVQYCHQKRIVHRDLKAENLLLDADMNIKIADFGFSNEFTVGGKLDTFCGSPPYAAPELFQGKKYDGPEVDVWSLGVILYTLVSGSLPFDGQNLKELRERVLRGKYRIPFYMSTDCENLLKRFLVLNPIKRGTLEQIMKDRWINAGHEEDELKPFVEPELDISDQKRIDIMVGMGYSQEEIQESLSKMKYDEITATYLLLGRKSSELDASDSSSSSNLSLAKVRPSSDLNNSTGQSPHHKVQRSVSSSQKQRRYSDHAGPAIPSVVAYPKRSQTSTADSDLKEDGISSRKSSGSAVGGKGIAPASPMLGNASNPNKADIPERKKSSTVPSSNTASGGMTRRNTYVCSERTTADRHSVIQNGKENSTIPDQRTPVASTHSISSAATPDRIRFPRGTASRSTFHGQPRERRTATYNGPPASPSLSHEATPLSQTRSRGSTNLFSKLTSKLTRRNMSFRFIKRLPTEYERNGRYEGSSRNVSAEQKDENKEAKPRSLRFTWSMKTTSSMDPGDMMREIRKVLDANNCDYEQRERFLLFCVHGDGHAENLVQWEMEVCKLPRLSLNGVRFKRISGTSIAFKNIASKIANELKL

In the case of “MARKALKLASWTSMALAASGIYFYSNKYLDPNDFGAVRVGRAVATTAVISYDYLTSLKSVPYGSEEYLQLRSKSWPVFLQVHLRSARRLCELCCANRGTFIKVGQHLGALDYLLPEEYTSTLKVLHSQAPQSSMQEIRQVIREDLGKEIHDLFQSFDDTPLGTASLAQVHKAVLHDGRTVAVKVQHPKVRAQSSKDILLMEVLVLAVKQLFPEFEFMWLVDEAKKNLPLELDFLNEGRNAEKVSQMLRHFDFLKVPRIHWDLSTERVLLMEFVDGGQVNDRDYMERNKIDVNEISRHLGKMYSEMIFVNGFVHCDPHPGNVLVRKHPGTGKAEIVLLDHGLYQMLTEEFRLNYCHLWQSLIWTDMKRVKEYSQRLGAGDLYPLFACMLTARSWDSVNRGISQAPVTATEDLEIRNNAANYLPQISHLLNHVPRQMLLILKTNDLLRGIEAALGTRASASSFLNMSRCCIRALAEHKKKNTCSFFRRTQISFSEAFNLWQINLHELILRVKGLKLADRVLALICWLFPAPL [ADCK1]”, the thermal stability score was 0.277 under setting [1] and -0.197 (cell cycle stage: mitosis).
Take “MLLLVTSLLLCELPHPAFLLIPEKSDLRTVAPASSLNVRFDSRTMNLSWDCQENTTFSKCFLTDKKNRVVEPRLSNNECSCTFREICLHEGVTFEVHVNTSQRGFQQKLLYPNSGREGTAAQNFSCFIYNADLMNCTWARGPTAPRDVQYFLYIRNSKRRREIRCPYYIQDSGTHVGCHLDNLSGLTSRNYFLVNGTSREIGIQFFDSLLDTKKIERFNPPSNVTVRCNTTHCLVRWKQPRTYQKLSYLDFQYQLDVHRKNTQPGTENLLINVSGDLENRYNFPSSEPRAKHSVKIRAADVRILNWSSWSEAIEFGSDDGNLGSVYIYVLLIVGTLVCGIVLGFLFKRFLRIQRLFPPVPQIKDKLNDNHEVEDEIIWEEFTPEEGKGYREEVLTVKEIT [CSF2RA]”: the thermal stability score is -1.1 under setting [1] and -1.35 (cell cycle stage: mitosis).
The corresponding values for “MSEDEEKVKLRRLEPAIQKFIKIVIPTDLERLRKHQINIEKYQRCRIWDKLHEEHINAGRTVQQLRSNIREIEKLCLKVRKDDLVLLKRMIDPVKEEASAATAEFLQLHLESVEELKKQFNDEETLLQPPLTRSMTVGGAFHTTEAEASSQSLTQIYALPEIPQDQNAAESWETLEADLIELSQLVTDFSLLVNSQQEKIDSIADHVNSAAVNVEEGTKNLGKAAKYKLAALPVAGALIGGMVGGPIGLLAGFKVAGIAAALGGGVLGFTGGKLIQRKKQKMMEKLTSSCPDLPSQTDKKCS [STX17]” are -0.17 and 0.13.
Regarding “MFPREKTWNISFAGCGFLGVYYVGVASCLREHAPFLVANATHIYGASAGALTATALVTGVCLGEAGAKFIEVSKEARKRFLGPLHPSFNLVKIIRSFLLKVLPADSHEHASGRLGISLTRVSDGENVIISHFNSKDELIQANVCSGFIPVYCGLIPPSLQGVRYVDGGISDNLPLYELKNTITVSPFSGESDICPQDSSTNIHELRVTNTSIQFNLRNLYRLSKALFPPEPLVLREMCKQGYRDGLRFLQRNGLLNRPNPLLALPPARPHGPEDKDQAVESAQAEDYSQLPGEDHILEHLPARLNEALLEACVEPTDLLTTLSNMLPVRLATAMMVPYTLPLESALSFTIRLLEWLPDVPEDIRWMKEQTGSICQYLVMRAKRKLGRHLPSRLPEQVELRRVQSLPSVPLSCAAYREALPGWMRNNLSLGDALAKWEECQRQLLLGLFCTNVAFPPEALRMRAPADPAPAPADPASPQHQLAGPAPLLSTPAPEARPVIGALGL [PNPLA2]”, the thermal stability score was -0.911 under setting [1] and 1.32 (cell cycle stage: mitosis).
For “MLRCGGRGLLLGLAVAAAAVMAARLMGWWGPRAGFRLFIPEELSRYRGGPGDPGLYLALLGRVYDVSSGRRHYEPGSHYSGFAGRDASRAFVTGDCSEAGLVDDVSDLSAAEMLTLHNWLSFYEKNYVCVGRVTGRFYGEDGLPTPALTQVEAAITRGLEANKLQLQEKQTFPPCNAEWSSARGSRLWCSQKSGGVSRDWIGVPRKLYKPGAKEPRCVCVRTTGPPSGQMPDNPPHRNRGDLDHPNLAEYTGCPPLAITCSFPL [CYB5D2]”, the thermal stability score under setting [1] stood at 0.86 and the thermal stability score (cell cycle stage: mitosis) is -0.244.
For the substance “MAVPGCNKDSVRAGCKKCGYPGHLTFECRNFLRVDPKRDIVLDVSSTSSEDSDEENEELNKLQALQEKRINEEEEKKKEKSKEKIKLKKKRKRSYSSSSTEEDTSKQKKQKYQKKEKKKEKKSKSKKGKHHKKEKKKRKKEKHSSTPNSSEFSRK [SREK1IP1]”, the thermal stability score is -0.6 under setting [1] and -4.29 (cell cycle stage: mitosis).
Regarding “MAAPLVLVLVVAVTVRAALFRSSLAEFISERVEVVSPLSSWKRVVEGLSLLDLGVSPYSGAVFHETPLIIYLFHFLIDYAELVFMITDALTAIALYFAIQDFNKVVFKKQKLLLELDQYAPDVAELIRTPMEMRYIPLKVALFYLLNPYTILSCVAKSTCAINNTLIAFFILTTIKGSAFLSAIFLALATYQSLYPLTLFVPGLLYLLQRQYIPVKMKSKAFWIFSWEYAMMYVGSLVVIICLSFFLLSSWDFIPAVYGFILSVPDLTPNIGLFWYFFAEMFEHFSLFFVCVFQINVFFYTIPLAIKLKEHPIFFMFIQIAVIAIFKSYPTVGDVALYMAFFPVWNHLYRFLRNIFVLTCIIIVCSLLFPVLWHLWIYAGSANSNFFYAITLTFNVGQILLISDYFYAFLRREYYLTHGLYLTAKDGTEAMLVLK [PIGU]”, the thermal stability score under setting [1] was 0.038 and the thermal stability score (cell cycle stage: mitosis) was -0.34.
The corresponding values for “MRVLVGGGTGFIGTALTQLLNARGHEVTLVSRKPGPGRITWDELAASGLPSCDAAVNLAGENILNPLRRWNETFQKEVIGSRLETTQLLAKAITKAPQPPKAWVLVTGVAYYQPSLTAEYDEDSPGGDFDFFSNLVTKWEAAARLPGDSTRQVVVRSGVVLGRGGGAMGHMLLPFRLGLGGPIGSGHQFFPWIHIGDLAGILTHALEANHVHGVLNGVAPSSATNAEFAQTLGAALGRRAFIPLPSAVVQAVFGRQRAIMLLEGQKVIPQRTLATGYQYSFPELGAALKEIVA [SDR39U1]” are -0.328 and -0.0339.
The like results for “MAKVSVLNVAVLENPSPFHSPFRFEISFECSEALADDLEWKIIYVGSAESEEFDQILDSVLVGPVPAGRHMFVFQADAPNPSLIPETDAVGVTVVLITCTYHGQEFIRVGYYVNNEYLNPELRENPPMKPDFSQLQRNILASNPRVTRFHINWDNNMDRLEAIETQDPSLGCGLPLNCTPIKGLGLPGCIPGLLPENSMDCI [ASF1B]” were, in that order, -3.88 and -1.16.
On to “MCFSFIMPPAMADILDIWAVDSQIASDGSIPVDFLLPTGIYIQLEVPREATISYIKQMLWKQVHNYPMFNLLMDIDSYMFACVNQTAVYEELEDETRRLCDVRPFLPVLKLVTRSCDPGEKLDSKIGVLIGKGLHEFDSLKDPEVNEFRRKMRKFSEEKILSLVGLSWMDWLKQTYPPEHEPSIPENLEDKLYGGKLIVAVHFENCQDVFSFQVSPNMNPIKVNELAIQKRLTIHGKEDEVSPYDYVLQVSGRVEYVFGDHPLIQFQYIRNCVMNRALPHFILVECCKIKKMYEQEMIAIEAAINRNSSNLPLPLPPKKTRIISHVWENNNPFQIVLVKGNKLNTEETVKVHVRAGLFHGTELLCKTIVSSEVSGKNDHIWNEPLEFDINICDLPRMARLCFAVYAVLDKVKTKKSTKTINPSKYQTIRKAGKVHYPVAWVNTMVFDFKGQLRTGDIILHSWSSFPDELEEMLNPMGTVQTNPYTENATALHVKFPENKKQPYYYPPFDKIIEKAAEIASSDSANVSSRGGKKFLPVLKEILDRDPLSQLCENEMDLIWTLRQDCREIFPQSLPKLLLSIKWNKLEDVAQLQALLQIWPKLPPREALELLDFNYPDQYVREYAVGCLRQMSDEELSQYLLQLVQVLKYEPFLDCALSRFLLERALGNRRIGQFLFWHLRSEVHIPAVSVQFGVILEAYCRGSVGHMKVLSKQVEALNKLKTLNSLIKLNAVKLNRAKGKEAMHTCLKQSAYREALSDLQSPLNPCVILSELYVEKCKYMDSKMKPLWLVYNNKVFGEDSVGVIFKNGDDLRQDMLTLQMLRLMDLLWKEAGLDLRMLPYGCLATGDRSGLIEVVSTSETIADIQLNSSNVAAAAAFNKDALLNWLKEYNSGDDLDRAIEEFTLSCAGYCVASYVLGIGDRHSDNIMVKKTGQLFHIDFGHILGNFKSKFGIKRERVPFILTYDFIHVIQQGKTGNTEKFGRFRQCCEDAYLILRRHGNLFITLFALMLTAGLPELTSVKDIQYLKDSLALGKSEEEALKQFKQKFDEALRESWTTKVNWMAHTVRKDYRS [PIK3CB]”, for which the thermal stability score under setting [1] was 0.304 and the thermal stability score (cell cycle stage: mitosis) amounted to 0.592.
For MARK3, the thermal stability score is, setting by setting: under setting [1], -0.371; (cell cycle stage: mitosis) 0.161.

The record behind these values is the supplement of paper PMC5998384.
